{"source": "paper PMC7275063", "about": "“Rab35-regulated lipid turnover by myotubularins represses mTORC1 activity and controls myelin growth” (Nature Communications, 2020)", "binders": {"B1": {"name": "N-terminally FLAG-tagged MTMR13 (natural protein)", "chain": "not shown", "notes": "MTMR13 (SBF2), full length, printed as aa1-1848, 5547 bp; other constructs end at aa1849; Gift plasmid in pcDNA3.1; the printed length of 1849 codons fits the human protein; also called FLAG-MTMR13; source: HEK293T, transfected, in lysate; not shown: FLAG, N-terminal, kept"}}, "molecular_target": "eGFP-Rab35CA (Q67L), GTP-locked, constitutively active (mouse, UniProt Q6PHN9 1-201, Q67L)", "sequence (Q6PHN9 whole entry Q67L)": "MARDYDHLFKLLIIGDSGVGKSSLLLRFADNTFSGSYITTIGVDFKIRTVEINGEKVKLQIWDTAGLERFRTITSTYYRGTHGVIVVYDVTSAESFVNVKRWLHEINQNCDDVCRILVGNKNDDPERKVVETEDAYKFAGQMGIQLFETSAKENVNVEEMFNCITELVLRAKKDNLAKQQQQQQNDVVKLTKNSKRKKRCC", "experiment": "co-IP; eGFP-Rab35CA or -DN captured on eGFP-Trap_MA beads from lysates of HEK293T cells co-expressing MTMR13 constructs, 24 h after transfection; 90 min at 4 °C; immunoblot", "details": "partners not purified", "data": [{"binder": "B1", "values": [{"measurement": "ratio of FLAG-MTMR13 bound to CA over DN", "result": 11.6}]}]}
